# Data: patent publication US20230138315A1 (JIANGSU HENGRUI MEDICINE, published 2023)
# T1: human-ANGPTL3 (R&D, 3829-AN) (human, UniProt Q9Y5C1 17-460)
# T1 construct: Bought antigen used in the Biacore assay
# T1 sequence (looked up): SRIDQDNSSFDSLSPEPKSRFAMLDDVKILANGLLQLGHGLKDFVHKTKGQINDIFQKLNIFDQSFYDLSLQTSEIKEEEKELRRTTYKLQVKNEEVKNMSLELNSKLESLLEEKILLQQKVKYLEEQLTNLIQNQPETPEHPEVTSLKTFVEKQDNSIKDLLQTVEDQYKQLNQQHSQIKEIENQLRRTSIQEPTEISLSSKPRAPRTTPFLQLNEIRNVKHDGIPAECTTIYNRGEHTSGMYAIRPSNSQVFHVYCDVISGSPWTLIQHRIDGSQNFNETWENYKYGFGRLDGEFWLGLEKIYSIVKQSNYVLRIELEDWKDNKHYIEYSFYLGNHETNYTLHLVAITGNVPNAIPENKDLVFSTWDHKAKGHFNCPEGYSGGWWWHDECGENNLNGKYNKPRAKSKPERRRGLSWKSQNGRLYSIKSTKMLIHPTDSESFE
# T2: rat ANGPTL3(17-455)-His (rat, biotin-labelled in the ELISA and HTRF assays (sites not given))
# T2 construct: also called full-length rat ANGPTL3
# T2 chain: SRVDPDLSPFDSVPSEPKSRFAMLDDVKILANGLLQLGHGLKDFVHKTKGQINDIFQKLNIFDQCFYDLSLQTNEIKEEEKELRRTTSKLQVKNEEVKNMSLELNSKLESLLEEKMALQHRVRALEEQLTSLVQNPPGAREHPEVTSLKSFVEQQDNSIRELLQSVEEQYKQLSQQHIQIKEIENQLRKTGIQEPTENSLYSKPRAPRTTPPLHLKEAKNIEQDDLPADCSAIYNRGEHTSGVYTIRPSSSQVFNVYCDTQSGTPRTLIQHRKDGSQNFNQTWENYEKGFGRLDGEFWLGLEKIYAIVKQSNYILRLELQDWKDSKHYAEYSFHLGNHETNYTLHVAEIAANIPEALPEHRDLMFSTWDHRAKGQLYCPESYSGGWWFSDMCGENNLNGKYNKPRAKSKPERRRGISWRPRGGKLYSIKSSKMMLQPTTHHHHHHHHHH
# T3: mouse ANGPTL3(17-455)-His (mouse, UniProt Q9R182 17-455, biotin-labelled in the ELISA and HTRF assays (sites not given))
# T3 sequence: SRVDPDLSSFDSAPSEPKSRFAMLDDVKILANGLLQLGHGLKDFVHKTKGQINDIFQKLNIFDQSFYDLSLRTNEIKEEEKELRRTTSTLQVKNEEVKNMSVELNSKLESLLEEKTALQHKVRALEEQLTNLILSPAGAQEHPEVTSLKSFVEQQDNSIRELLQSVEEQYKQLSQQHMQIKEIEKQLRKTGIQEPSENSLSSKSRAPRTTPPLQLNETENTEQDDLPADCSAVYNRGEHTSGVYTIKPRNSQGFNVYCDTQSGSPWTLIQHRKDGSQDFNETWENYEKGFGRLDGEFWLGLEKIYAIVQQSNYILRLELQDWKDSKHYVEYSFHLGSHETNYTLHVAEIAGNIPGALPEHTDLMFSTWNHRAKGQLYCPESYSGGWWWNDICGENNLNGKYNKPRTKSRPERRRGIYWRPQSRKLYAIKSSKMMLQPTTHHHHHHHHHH
# T4: human ANGPTL3(17-170)-Flag-His (human)
# T4 chain: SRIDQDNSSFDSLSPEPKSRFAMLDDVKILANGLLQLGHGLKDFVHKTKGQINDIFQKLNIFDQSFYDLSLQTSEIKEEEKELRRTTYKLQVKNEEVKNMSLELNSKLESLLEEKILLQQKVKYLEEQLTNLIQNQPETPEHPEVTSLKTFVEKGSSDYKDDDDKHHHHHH
# T5: cynomolgus monkey ANGPTL3(17-460)-His (cynomolgus monkey, UniProt Q9Y5C1 17-460 (human entry), biotin-labelled in the ELISA and HTRF assays (sites not given))
# T5 chain: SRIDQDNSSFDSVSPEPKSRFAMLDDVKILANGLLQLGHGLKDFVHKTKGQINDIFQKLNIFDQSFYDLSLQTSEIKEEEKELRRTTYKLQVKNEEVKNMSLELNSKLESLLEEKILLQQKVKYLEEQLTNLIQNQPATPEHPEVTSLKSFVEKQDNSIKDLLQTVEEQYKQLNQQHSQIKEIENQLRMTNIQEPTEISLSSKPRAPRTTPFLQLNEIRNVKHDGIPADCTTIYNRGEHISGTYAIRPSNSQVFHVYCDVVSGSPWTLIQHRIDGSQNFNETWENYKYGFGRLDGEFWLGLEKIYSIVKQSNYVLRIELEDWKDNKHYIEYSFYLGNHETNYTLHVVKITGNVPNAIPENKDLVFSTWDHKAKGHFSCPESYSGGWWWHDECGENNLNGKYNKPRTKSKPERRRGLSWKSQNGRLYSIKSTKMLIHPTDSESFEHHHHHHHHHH
# How the values were obtained:
# [1] = target: T1, human-ANGPTL3 (R&D, 3829-AN); experiment: SPR (Biacore T200); antibody captured on Protein A chip, antigen in flow; 1:1 Langmuir fit
# Description: (§1) Biacore was used to determine the affinity of the test anti-ANGPTL3 antibodies for human, monkey, rat and mouse ANGPTL3, and the method is as follows:
# (§2) Reaction signals were detected in real time using a Biacore T200 instrument to obtain association and dissociation curves. After each cycle of dissociation was completed, the biochip was washed and regenerated using a glycine-hydrochloric acid regeneration solution (Cat. # BR-1003-54, GE, pH 1.5). The running buffer for the experiment was 1×HBS-EP buffer (Cat. # BR-1001-88, GE). The data obtained from the experiment were fitted with the (1:1) Langmuir model using GE Biacore T200 evaluation software (version 3.0) to obtain affinity values.
# rat ANGPTL3(17-455)-His [2] = target: T2, rat ANGPTL3(17-455)-His; experiment: as above
# Description: as §1, §2
# [3] = target: T3, mouse ANGPTL3(17-455)-His; experiment: cell-based or functional assay
# [4] = target: T4, human ANGPTL3(17-170)-Flag-His; experiment: cell-based or functional assay
# [5] = target: T5, cynomolgus monkey ANGPTL3(17-460)-His; experiment: cell-based or functional assay
# rat ANGPTL3(17-455)-His [6] = target: T2, rat ANGPTL3(17-455)-His; experiment: cell-based or functional assay
Binder,Kd [1] [nM],koff [1] [s⁻¹],kon [1] [M⁻¹ s⁻¹],Kd (rat ANGPTL3(17-455)-His [2]) [nM],koff (rat ANGPTL3(17-455)-His [2]) [s⁻¹],kon (rat ANGPTL3(17-455)-His [2]) [M⁻¹ s⁻¹],IC50 of blocking the inhibition of bovine LPL enzyme activity by ANGPTL3 [3] [nM],IC50 of blocking the inhibition of bovine LPL enzyme activity by ANGPTL3 [4] [nM],IC50 of blocking the inhibition of bovine LPL enzyme activity by ANGPTL3 [5] [nM],IC50 of blocking the inhibition of bovine LPL enzyme activity by ANGPTL3 (rat ANGPTL3(17-455)-His [6]) [nM]
"P8G (antibody, human IgG4 S228P, kappa, V domains shown, also called anti-ANGPTL3 antibody P8G; P8 (variable regions)) VH: QVQLVQSGAEVKKPGASVKVSCKASGYTFTSYDINWVRQAPGQGLEWVGLINPRDDSTSYAQKFQGRVTMTRDTSTSTMYMELSSLRSEDTAVYFCARDLGSIREVLYYGMDVWGQGTTVTVSS VL: not shown",0.151,0.000333,2.2e+06,0.25,0.000335,1.34e+06,–,–,–,–
"P8BG (antibody, human IgG4 S228P, kappa, V domains shown, also called anti-ANGPTL3 antibody P8BG; P8B (variable regions)) VH: QVQLVQSGAEVKKPGASVKVSCKASGYTFTSYDINWVRQAPGQGLEWVGLINPREDSTSYAQKFQGRVTMTRDTSTSTMYMELSSLRSEDTAVYFCARDLGSIREVLYYGMDVWGQGTTVTVSS VL: not shown",0.045,0.000276,6.14e+06,0.257,0.000311,1.21e+06,41.5,75.3,53.6,132
"P3G (antibody, human IgG4 S228P, kappa, V domains shown, also called anti-ANGPTL3 antibody P3G; P3 (variable regions)) VH: QVQLVQSGAEVKKPGASVKVSCKSSGYTFTDYYLHWLRQAPGQGPEWMGWISPNSGGTSYAQKFQGRVTMTRDTSISTAYMELSSLRSDDTAVYYCARDIATLGNFFTYGMDVWGQGTTVTVSS VL: DIQLTQSPSSLSASVGDRVTITCRASQGIRNDLGWYQQKPGKAPKLLIYAASSLQSGVPSRFSGSGSGTDFTLTISSLQPEDFATYYCQQSYSSWTFGQGTKVEIKR",0.285,0.000731,2.56e+06,0.639,0.00082,1.28e+06,168,68.9,42.4,66.5
